Patent US20060177894A1

Tests used:
[1] = molecular target: rat lutropin receptor (LHR) (rat) (UniProt P16235); assay: cell-based or functional assay
[2] = molecular target: rat lutropin receptor (LHR) (rat) (UniProt P16235); assay: inhibition of 125I-hCG binding to CHO cells with rat LHR; from IC50; acid-stable hCGβ-S138C analog
[3] = molecular target: rat lutropin receptor (LHR) (rat) (UniProt P16235); assay: receptor binding assay

rat lutropin receptor (LHR) (rat), sequence (P16235 27-700): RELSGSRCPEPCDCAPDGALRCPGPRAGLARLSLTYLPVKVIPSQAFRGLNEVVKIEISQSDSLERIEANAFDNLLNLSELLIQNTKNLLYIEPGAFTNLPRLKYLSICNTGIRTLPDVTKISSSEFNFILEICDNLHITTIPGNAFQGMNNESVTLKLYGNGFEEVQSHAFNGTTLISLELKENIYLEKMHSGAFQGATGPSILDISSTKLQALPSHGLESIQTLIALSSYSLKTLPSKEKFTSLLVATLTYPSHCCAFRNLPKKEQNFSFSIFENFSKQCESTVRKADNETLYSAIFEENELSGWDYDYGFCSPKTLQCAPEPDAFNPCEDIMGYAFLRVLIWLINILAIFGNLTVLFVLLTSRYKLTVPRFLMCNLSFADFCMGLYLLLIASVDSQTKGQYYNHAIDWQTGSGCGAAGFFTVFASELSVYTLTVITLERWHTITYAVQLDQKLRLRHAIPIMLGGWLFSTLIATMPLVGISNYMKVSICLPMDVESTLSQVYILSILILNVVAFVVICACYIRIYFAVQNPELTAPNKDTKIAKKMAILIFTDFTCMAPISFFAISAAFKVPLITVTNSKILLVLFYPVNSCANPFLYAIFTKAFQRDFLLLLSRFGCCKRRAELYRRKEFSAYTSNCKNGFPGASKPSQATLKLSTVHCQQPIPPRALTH

| Signal transduction potency (cAMP accumulation), acid-stable analog [1] | Receptor-Binding potency (percent hCG) [2] | signaling assays [1] | activity relative to hCG [3] | Substance |
| --- | --- | --- | --- | --- |
| 0.18 % of hCG | 2.2 % of hCG | – | – | αT86C + hCGβ-S138C (from UniProt P01215 25-116; P0DN86 21-165) (ligand) |
| 0.12 % of hCG | 0.05 % of hCG | – | – | αY88C + hCGβ-S138C (from UniProt P01215 25-116; P0DN86 21-165) (ligand) |
| – | – | 50 % of hCG | > 50 % of hCG | analog containing the entire carboxyterminal residues of the hCG β-subunit attached to the α-subunit (from UniProt P01215 25-116) (ligand) |
